One assay deals with T1, Human CLEC12A-His (human, UniProt Q5QGZ9 65-265).
T1 construct: Recombinant soluble protein made in house (Dragonfly Tx); The hCLEC12A spot of the HuProt array is written under this molecule as well; also called hCLEC12A-His; hCLEC12A; not shown: His tag
T1 sequence: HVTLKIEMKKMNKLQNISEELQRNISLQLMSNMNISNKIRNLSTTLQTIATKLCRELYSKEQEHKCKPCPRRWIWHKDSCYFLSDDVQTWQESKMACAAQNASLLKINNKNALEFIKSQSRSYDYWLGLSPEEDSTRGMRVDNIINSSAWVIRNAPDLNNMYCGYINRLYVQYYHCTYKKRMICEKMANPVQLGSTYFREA
The experiment in a line: SPR Biacore 8K 37 C; TriNKET captured on anti-hFc chip, hCLEC12A-His as analyte; 1:1 fit; pH 5.0 control, n=2. (In general: Surface plasmon resonance follows binding to a sensor surface in real time, without labels.)

Assay [1] deals with T2, mFc-hNKG2D (human, UniProt P26718 73-216).
T2 construct: extracellular domain; Made in house (Dragonfly Tx); the order of tag and ECD follows the name mFc-hNKG2D; also called mFc-tagged human NKG2D; not shown: mouse Fc tag
T2 sequence (looked up): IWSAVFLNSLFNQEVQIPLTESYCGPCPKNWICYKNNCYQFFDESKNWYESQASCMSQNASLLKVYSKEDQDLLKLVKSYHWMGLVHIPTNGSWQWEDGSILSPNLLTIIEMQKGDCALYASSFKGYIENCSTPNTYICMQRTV
The experiment in a line: SPR Biacore 8K 37 C; mFc-hNKG2D captured on anti-mFc chip, TriNKET as analyte; 1:1 kinetic fit; control sample.

Assay [2] concerns the target T2, mFc-hNKG2D. The experiment in a line: SPR Biacore 8K 37 C; mFc-hNKG2D captured on anti-mFc chip, TriNKET as analyte; 1:1 kinetic fit; after 0.02% H2O2 24 h.
Procedure: (§1) Association was monitored for 60 seconds and dissociation was monitored for 60 seconds. Surfaces were regenerated between cycles with three pulses of 10 mM glycine-HCl, pH 1.7 injected for 20 seconds at 100 μL/min. HBS-EP+ (1×) buffer was used throughout the experiment. Data were analyzed using Biacore 8K Insight evaluation software (GE Healthcare).
The target in assay [3] is T2, mFc-hNKG2D. The experiment in a line: SPR Biacore 8K 37 C; mFc-hNKG2D captured on anti-mFc chip, TriNKET as analyte; steady state fit; after 4 wks 40 C in phosphate/citrate/NaCl pH 7.8, n=2.
Procedure: as §1

In general, Kd refers to the equilibrium constant for the complex coming apart. The term koff denotes the rate constant with which the complex falls apart. The term kon denotes the rate constant with which the complex forms. A lower kon goes with slower complex formation.

B1: F3'-1602 TriNKET (bispecific antibody, human IgG1, kappa)
chain: QLQLQESGPGLVKPSETLSLTCTVSGFSLTNYGLHWIRQPPGKCLEWIGVIWSGGKTDYNPSLKSRVTISKDTSKNQFSLKLSSVQAADTAVYYCAKYDYDDSLDYWGQGTLVTVSSGGGGSGGGGSGGGGSGGGGSDIQMTQSPSSLSASVGDRVTITCHASQNINFWLSWYQQKPGKAPKLLIYEASNLHTGVPSRFSGSGSGTRFTLTISSLQPEDIATYYCQQSHSYPLTFGCGTKLEIKGSDKTHTCPPCPAPELLGGPSVFLFPPKPKDTLMISRTPEVTCVVVDVSHEDPEVKFNWYVDGVEVHNAKTKPREEQYNSTYRVVSVLTVLHQDWLNGKEYKCKVSNKALPAPIEKTISKAKGQPREPRVYTLPPCRDELTKNQVSLTCLVKGFYPSDIAVEWESNGQPENNYKTTPPVLVSDGSFTLYSKLTVDKSRWQQGNVFSCSVMHEALHNHYTQKSLSLSPG
heavy: EVQLVESGGGLVKPGGSLRLSCAASGFTFSSYSMNWVRQAPGKGLEWVSSISSSSSYIYYADSVKGRFTISRDNAKNSLYLQMNSLRAEDTAVYYCARGAPIGAAAGWFDPWGQGTLVTVSSASTKGPSVFPLAPSSKSTSGGTAALGCLVKDYFPEPVTVSWNSGALTSGVHTFPAVLQSSGLYSLSSVVTVPSSSLGTQTYICNVNHKPSNTKVDKKVEPKSCDKTHTCPPCPAPELLGGPSVFLFPPKPKDTLMISRTPEVTCVVVDVSHEDPEVKFNWYVDGVEVHNAKTKPREEQYNSTYRVVSVLTVLHQDWLNGKEYKCKVSNKALPAPIEKTISKAKGQPREPQVCTLPPSRDELTENQVSLTCLVKGFYPSDIAVEWESNGQPENNYKTTPPVLDSDGSFFLYSWLTVDKSRWQQGNVFSCSVMHEALHNHYTQKSLSLSPG
light: DIQMTQSPSSVSASVGDRVTITCRASQGISSWLAWYQQKPGKAPKLLIYAASSLQSGVPSRFSGSGSGTDFTLTISSLQPEDFATYYCQQGVSFPRTFGGGTKVEIKRTVAAPSVFIFPPSDEQLKSGTASVVCLLNNFYPREAKVQWKVDNALQSGNSQESVTEQDSKDSTYSLSSTLTLSKADYEKHKVYACEVTHQGLSSPVTKSFNRGEC
notes: Trispecific F3' format: CLEC12A scFv-Fc paired with NKG2D Fab-Fc; Stressed and control samples of the stability studies are the same molecule; also called AB0237
On to B1, for which the Kd in the assay with Human CLEC12A-His worked out at 1.07 nM; with mFc-hNKG2D [1], 760 nM; with mFc-hNKG2D [2], 722 nM; in the assay with mFc-hNKG2D [3], 872 nM. Further, the dissociation rate constant (koff) with Human CLEC12A-His was 0.000853 s⁻¹; with mFc-hNKG2D [1], 0.129 s⁻¹; with mFc-hNKG2D [2], 0.107 s⁻¹. For the same molecule, the kon is 799000 M⁻¹ s⁻¹ in the assay with Human CLEC12A-His, 170000 M⁻¹ s⁻¹ in the assay with mFc-hNKG2D [1] and 148000 M⁻¹ s⁻¹ with mFc-hNKG2D [2].

For the origin of these results see patent publication US20220119534A1 (DRAGONFLY THERAPEUTICS, published 2022).
